Experimental data taken from patent US8487082B2, “Synthetic scFv analogue to the 6313/G2 (anti angiotensin II type 1 receptor) monoclonal antibody variable regions” (Queen Mary & Westfield College, priority 2008, dated 2013).
Entries after “also recorded” stand apart in the source; their conditions may differ. Read-outs that look alike come from different tables or passages of the source.

Experiments:
[1] = tested on: MCF-7 cell xenografts; assay: In vivo xenograft assay; conditions: nu/nu mice, 13 nmol/kg
Protocol: Mice were injected s.c. on the right-flank, with 150 μl sterile PBS containing 7.5×10^6 MCF-7 cells. Tumour cells were allowed to grow for 4 weeks without hormone support, thereafter mice received weekly s.c. injections of 17β-oestradiol valerate (0.1 mg/Kg body weight), in sesame oil (Kasukabe et al., Breast Cancer Res. 7(6) R1097-110 (2005)) for a further 8 weeks. Animals were monitored daily for general health, and body weights were measured twice-weekly. Tumour size was measured 3 times per week with slide callipers, and volumes were calculated as (L×W^2)/2, where L and W are the major and minor diameters, respectively. Once tumour volumes reached 150 to 200 mm^3, mice were randomized to treatment and control groups of 8 to 10 per group. Mice were treated by subcutaneous injections of R6313/G2 in sterile PBS (0.1 ml) at doses of 0.4 mg/kg (13 nmol/kg), 0.8 mg/kg (27 nmol/Kg), and 1.36 mg/kg (45.3 nmol/kg) body weight, twice per day for seven days. Control mice received sterile PBS. […] Relative body weights (%) were calculated as (Wt/Wi)×100, where Wt is the body weight at any given time and Wi is the body weight at treatment initiation. Net tumour volume was calculated as Vt-Vi, where Vt is the tumour volume at any given time and Vi is the tumour volume at the start of treatment, and expressed as a percentage of Vi.

[2] = tested on: breast cancer cells; assay: Caspase-driven apoptosis (summary statement); format: cell-based
Description: Cells were harvested using Trypsin/EDTA and counted.

[3] = biological target: biotinylated peptide antigen (AT1 receptor) (Rattus norvegicus, UniProt P25095); assay: Quartz crystal microbalance binding (Attana 100); conditions: 9 μg/ml, 100 second injection period; listed as 12D
Protocol: Data were obtained comparing the characteristics of binding of the scFv variants and IgM to immobilised peptide antigen using the Attana 100 Quartz Crystal Microbalance. This involved use of a streptavidin (0.1 mg/ml)-coated biotin “chip” (gold-plated quartz crystal in an Attana 100 Biosensor (Quartz crystal microbalance (QCM)) (Attana AB, Stockholm, Sweden). Peptide antigen corresponding to that sequence used to raise the original murine hybridoma, biotinylated at the C-terminus, was then run across the chip at a concentration of 4 μg/ml to create a binding target for scFvs and IgM that were subsequently run across the surface of the QCM chip. Attester software (Attana, Sweden) was used to monitor changes in resonance frequency of the QCM chip in response to binding of a test antibody to the antigen. The magnitude of deflection in Hz over the period of sample injection of 100 s in Hz/second was determined for each antibody at a concentration of 9 μg/ml. The rate at which the antibody was then released from the QCM chip was also measured in Hz/second from the straight-line portion of the biosensor trace as antibody gradually departed from the chip and as the resonance frequency of the chip decreased. Running buffer was PBS containing 0.005% Tween 20 (PBST) and this was also used to make antibody dilutions to give a final protein concentration of 9 μg/ml in each case. The Attana 100 was set up with a 50 μl injection loop and was running with a constant pump speed of 20 μl/min. Samples and PBST buffer controls were injected over 100 seconds giving a sample volume across the chip of 33 μl. 100 mM (6.6 μl volume) phosphoric acid solution was used to regenerate the strepavidin-antigen surface between individual experimental sample runs.

[4] = tested on: MCF7 cells
Protocol: Activation of caspases during apoptosis was determined using the Apo-ONE homogenous caspase-3/7 assay (Promega Corp, Southampton UK), according to the manufacturer's instructions. Briefly, cells were grown to 90% confluence and washed three times with sterile PBS. Cells were harvested using Trypsin/EDTA and counted. Cells (10^4 per well) were seeded into a 96 well plate and incubated with R6313/G2 at concentrations from 0.1 to 3 μM in the presence or absence of 100 nmol/L angiotensin II, total volume 150 μl, for 24 and 48 hours. After incubation, caspase-3/7 Z-DEVD-R110 substrate (100 μl) was added to each well. Blank wells contained reagent alone, and controls omitted the antibody and/or angiotensin II. Fluorescence was measured every 2 hours over an 8 hour period using a Fluostar Optima spectrofluorimeter (BMG Laboratories, Offenburg Germany), with an excitation wavelength of 485 nm and an emission wavelength of 535 nm.

[5] = tested on: T-47D breast cancer cells; assay: Fluorimetric invasion assay (QCM cell invasion, ECM); format: cell-based; conditions: for T-47D cell invasion through ECM: scFv alone, 50 and 250 nmol/L, 24 h
Protocol: The method used is QCM™ Cell invasion assay (Chemicon Cat No. ECM555). This uses fluorimetric detection of cells which have broken through a reconstituted basement membrane matrix proteins (ECM) derived from the Engelbreth-Holm-Swam (EHS) mouse tumour (Repesh LA (1989) Invasion Metastasis 9: 192-208)
ECM-coated inserts were placed in 96-well plates and 100 μl of prewarmed serum-free medium added to the interior of the inserts in order to hydrate the ECM layer over 1-2 h at room temperature. Media was removed and 150 μl of serum free medium added to the wells of the 96-well plate housing the inserts. 100 μl of medium containing 10^5 cells/per insert was then introduced. The plate was covered and incubated at 37 C in a 5% CO2/95% air humidified incubator for 24 h. After removing cells from inside the insert and rinsing with PBS, the insert was replaced into a 96-well plate containing Cell Detachment Solution and incubated at 37 C for 30 min. Cells that had invaded through the ECM to the bottom of the insert were, in this way, dislodged from the insert for subsequent lysis and measurement of fluorescence using a 480/520 filter set in a Fluostar Optima fluorimeter (BMG Labtech), according to manufacturer's instructions.

B1: R6313/G2: murine scFv analogue of the 6313/G2 anti-AT1 receptor monoclonal antibody variable domains, SEQ ID NO:15 (protein)
scFv: YAAQPAMAQVKLQQSGPELEKPGASVKISCKASGYSFTGYNMNWVKQSNGKSLEWIGNIDPYYGGTTYNQKFKGKATLTVDKSSSTAYMQLKSLTSEDSAVYYCAREVDYWGQGTTVTVSSGGGGSGGGGSGGGGSDIELTQSPASLAVSLGQRATISYRASKSVSTSGYSYMHWNQQKPGQPPRLLIYLVSNLESGVPARFSGSGSGTDFTLNIHPVEEEDAATYYCQHIRELTRSEGTKLEIKRAAAGAPVPY
modifications: 12D
cancer cell growth, xenograft tumours [1]: significantly inhibited cancer cell growth
caspase-driven apoptosis ([2]; angiotensin II omitted): omission of angiotensin blocks its effects
caspase-driven apoptosis ([2]; in the presence of up to 100 nmol angiotensin II per L): enhances caspase-driven apoptosis
change in resonance frequency (apparent on-rate, Hz/second) compared with IgM [3]: significantly greater increases in resonance frequency; also recorded: significantly greater changes in resonance frequency
caspase-3/7 activity ([4]; MCF7, R6313/G2 alone): reduced caspase-3/7 activity
caspase-3/7 activity ([4]; MCF7, in the presence of angiotensin II): dose dependently increased caspase-3/7 activity
inhibition of cell invasion ([5]; 250 nmol/L R6313/G2 with angiotensin II 100 nmol/L, 24 hour assay period): up to 25%
effect on T-47D cell invasion in the presence of angiotensin II ([5]; 250 nmol/L scFv, angiotensin II 100 nmol/L): significantly more pronounced
T-47D cell invasion through ECM [5]: inhibits T-47D cell invasion
T-47D cell invasion through ECM ([5]; listed as R6313/G2 clone12D): significantly inhibits T-47D cell invasion
